# From patent US20040233833
# Several values for one entry are separate records, joined by “and”; a condition that tells them apart may be missing. Equal entries are not always repeated.
# Key:
# REGγ(K188E) = REGγ(K188E) (UniProt P61289)
# REGα = REGα (UniProt Q06323)
# REGγ(K188I) = REGγ(K188I) (UniProt P61289)
# REGγ(K188R) = REGγ(K188R) (UniProt P61289)
# REGγ(K188F) = REGγ(K188F) (UniProt P61289)
# REGγ(K188C) = REGγ(K188C) (UniProt P61289)
# REGγ(K188D) = REGγ(K188D) (UniProt P61289)
# REGγ(K188Q) = REGγ(K188Q) (UniProt P61289)
# REGγ(K188P) = REGγ(K188P) (UniProt P61289)
# REGγ(K188A) = REGγ(K188A) (UniProt P61289)
# REGα/β = REGα/β (UniProt Q06323)
# REGγ(K188N) = REGγ(K188N) (UniProt P61289)
# REGγ(K188S) = REGγ(K188S) (UniProt P61289)
# REGγ(K188H) = REGγ(K188H) (UniProt P61289)
# REGγ (wild-type) = REGγ (wild-type) (UniProt P61289)
# Chain of REGγ (wild-type) (P61289 whole entry): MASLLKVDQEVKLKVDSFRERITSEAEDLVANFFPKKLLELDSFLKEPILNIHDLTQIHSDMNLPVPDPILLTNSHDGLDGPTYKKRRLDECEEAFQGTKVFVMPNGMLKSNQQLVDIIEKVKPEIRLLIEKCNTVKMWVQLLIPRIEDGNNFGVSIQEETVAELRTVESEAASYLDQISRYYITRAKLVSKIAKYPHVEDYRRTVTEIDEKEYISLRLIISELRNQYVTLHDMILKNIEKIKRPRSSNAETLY
# Chain of REGγ(K188S) (P61289 whole entry K188S): as the sequence (P61289 whole entry) above, with K188S counted along it
# Chain of REGγ(K188C) (P61289 whole entry K188C): as the sequence (P61289 whole entry) above, with K188C counted along it
# Chain of REGγ(K188D) (P61289 whole entry K188D): as the sequence (P61289 whole entry) above, with K188D counted along it
# Chain of REGγ(K188P) (P61289 whole entry K188P): as the sequence (P61289 whole entry) above, with K188P counted along it
# Chain of REGγ(K188Q) (P61289 whole entry K188Q): as the sequence (P61289 whole entry) above, with K188Q counted along it
# Chain of REGα/β (Q06323 whole entry, chain 1 of 2): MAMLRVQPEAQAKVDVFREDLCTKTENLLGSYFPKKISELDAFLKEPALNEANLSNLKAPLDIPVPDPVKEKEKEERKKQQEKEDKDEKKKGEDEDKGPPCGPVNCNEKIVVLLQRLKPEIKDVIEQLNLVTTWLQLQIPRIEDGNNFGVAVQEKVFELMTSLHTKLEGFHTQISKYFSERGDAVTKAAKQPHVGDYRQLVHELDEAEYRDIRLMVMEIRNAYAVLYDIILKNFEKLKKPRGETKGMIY
# Chain of REGα/β (chain, as listed by the source, chain 2 of 2): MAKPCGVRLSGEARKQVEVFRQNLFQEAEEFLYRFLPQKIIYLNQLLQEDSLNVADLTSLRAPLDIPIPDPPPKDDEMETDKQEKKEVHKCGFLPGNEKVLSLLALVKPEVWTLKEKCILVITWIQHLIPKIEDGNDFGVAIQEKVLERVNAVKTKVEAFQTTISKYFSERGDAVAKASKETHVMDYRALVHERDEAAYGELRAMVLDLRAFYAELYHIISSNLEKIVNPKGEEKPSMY
# Chain of REGα (Q06323 whole entry): as the sequence (Q06323 whole entry, chain 1 of 2) above
# Chain of REGγ(K188N) (P61289 whole entry K188N): as the sequence (P61289 whole entry) above, with K188N counted along it
# Chain of REGγ(K188A) (P61289 whole entry K188A): as the sequence (P61289 whole entry) above, with K188A counted along it
# Chain of REGγ(K188E) (P61289 whole entry K188E): as the sequence (P61289 whole entry) above, with K188E counted along it
# Chain of REGγ(K188I) (P61289 whole entry K188I): as the sequence (P61289 whole entry) above, with K188I counted along it
# Chain of REGγ(K188R) (P61289 whole entry K188R): as the sequence (P61289 whole entry) above, with K188R counted along it
# Chain of REGγ(K188H) (P61289 whole entry K188H): as the sequence (P61289 whole entry) above, with K188H counted along it
# Chain of REGγ(K188F) (P61289 whole entry K188F): as the sequence (P61289 whole entry) above, with K188F counted along it
substance,measurement,setting,value
20S proteasome (human red blood cell proteasomes),"% Degraded, substrate F1-EPQPQ (SEQ ID NO: 15), 5 hr",REGγ(K188E),80%
same,"% Degraded, substrate F1-KSQPQ (SEQ ID NO: 16), 5 hr",REGγ(K188E),80%
same,"% Degraded, substrate F1-QHQ, 5 hr",REGγ(K188E),50%
same,"% Degraded, substrate F1-QPQ, 5 hr",REGγ(K188E),50%
same,"% Degraded, substrate F1-QQQ, 5 hr",REGγ(K188E),> 95%
same,"Stimulation of cleavage (x-fold), AAF-MCA",REGγ(K188E),4 x-fold
same,"Stimulation of cleavage (x-fold), DEVD(SEQ ID NO: 8)-MCA",REGγ(K188E),8 x-fold
same,"Stimulation of cleavage (x-fold), FSR-MCA",REGγ(K188E),7 x-fold
same,"Stimulation of cleavage (x-fold), IEGR(SEQ ID NO: 5)-MCA",REGγ(K188E),2 x-fold
same,"Stimulation of cleavage (x-fold), IETD(SEQ ID NO: 6)-MCA",REGγ(K188E),21 x-fold
same,"Stimulation of cleavage (x-fold), LGHD(SEQ ID NO: 7)-MCA",REGγ(K188E),10 x-fold
same,"Stimulation of cleavage (x-fold), LLE-βNA",REGγ(K188E),9 x-fold
same,"Stimulation of cleavage (x-fold), LLVY(SEQ ID NO: 1)-MCA",REGγ(K188E),14 x-fold
same,"Stimulation of cleavage (x-fold), LLVY-MCA",REGγ(K188E),14 x-fold
same,"Stimulation of cleavage (x-fold), LRR-MCA",REGγ(K188E),15 x-fold
same,"Stimulation of cleavage (x-fold), LY-MCA",REGγ(K188E),3 x-fold
same,"Stimulation of cleavage (x-fold), VLK-MCA",REGγ(K188E),6 x-fold
same,"Stimulation of cleavage (x-fold), YVAD(SEQ ID NO: 9)-MCA",REGγ(K188E),7 x-fold
same,hydrolysis of the 21-residue peptide P21 by the proteasome (HPLC),REGγ(K188E),REGγ(K188E or D) and REGα markedly increased sunstrate consumption
same,"Stimulation of cleavage (x-fold), AAF-MCA",REGα,6 x-fold
same,"Stimulation of cleavage (x-fold), DEVD(SEQ ID NO: 8)-MCA",REGα,10 x-fold
same,"Stimulation of cleavage (x-fold), FSR-MCA",REGα,10 x-fold
same,"Stimulation of cleavage (x-fold), IEGR(SEQ ID NO: 5)-MCA",REGα,3 x-fold
same,"Stimulation of cleavage (x-fold), IETD(SEQ ID NO: 6)-MCA",REGα,30 x-fold
same,"Stimulation of cleavage (x-fold), LGHD(SEQ ID NO: 7)-MCA",REGα,11 x-fold
same,"Stimulation of cleavage (x-fold), LLE-βNA",REGα,9 x-fold
same,"Stimulation of cleavage (x-fold), LLVY(SEQ ID NO: 1)-MCA",REGα,16 x-fold
same,"Stimulation of cleavage (x-fold), LLVY-MCA",REGα,16 x-fold
same,"Stimulation of cleavage (x-fold), LRR-MCA",REGα,16 x-fold
same,"Stimulation of cleavage (x-fold), LY-MCA",REGα,5 x-fold
same,"Stimulation of cleavage (x-fold), VLK-MCA",REGα,7 x-fold
same,"Stimulation of cleavage (x-fold), YVAD(SEQ ID NO: 9)-MCA",REGα,9 x-fold
same,hydrolysis of the 21-residue peptide P21 by the proteasome (HPLC),REGα,REGγ(K188E or D) and REGα markedly increased sunstrate consumption
same,"Stimulation of cleavage (x-fold), LLE-βNA",REGγ(K188I),3 x-fold
same,"Stimulation of cleavage (x-fold), LLVY-MCA",REGγ(K188I),2 x-fold
same,"Stimulation of cleavage (x-fold), LRR-MCA",REGγ(K188I),12 x-fold
same,"Stimulation of cleavage (x-fold), LLE-βNA",REGγ(K188R),0.7 x-fold
same,"Stimulation of cleavage (x-fold), LLVY-MCA",REGγ(K188R),0.7 x-fold
same,"Stimulation of cleavage (x-fold), LRR-MCA",REGγ(K188R),10 x-fold
same,"Stimulation of cleavage (x-fold), LLE-βNA",REGγ(K188F),4 x-fold
same,"Stimulation of cleavage (x-fold), LLVY-MCA",REGγ(K188F),4 x-fold
same,"Stimulation of cleavage (x-fold), LRR-MCA",REGγ(K188F),13 x-fold
same,"Stimulation of cleavage (x-fold), LLE-βNA",REGγ(K188C),5 x-fold
same,"Stimulation of cleavage (x-fold), LLVY-MCA",REGγ(K188C),6 x-fold
same,"Stimulation of cleavage (x-fold), LRR-MCA",REGγ(K188C),13 x-fold
same,"Stimulation of cleavage (x-fold), AAF-MCA",REGγ(K188D),4 x-fold
same,"Stimulation of cleavage (x-fold), DEVD(SEQ ID NO: 8)-MCA",REGγ(K188D),9 x-fold
same,"Stimulation of cleavage (x-fold), FSR-MCA",REGγ(K188D),7 x-fold
same,"Stimulation of cleavage (x-fold), IEGR(SEQ ID NO: 5)-MCA",REGγ(K188D),2 x-fold
same,"Stimulation of cleavage (x-fold), IETD(SEQ ID NO: 6)-MCA",REGγ(K188D),26 x-fold
same,"Stimulation of cleavage (x-fold), LGHD(SEQ ID NO: 7)-MCA",REGγ(K188D),11 x-fold
same,"Stimulation of cleavage (x-fold), LLE-βNA",REGγ(K188D),9 x-fold
same,"Stimulation of cleavage (x-fold), LLVY(SEQ ID NO: 1)-MCA",REGγ(K188D),14 x-fold
same,"Stimulation of cleavage (x-fold), LLVY-MCA",REGγ(K188D),14 x-fold
same,"Stimulation of cleavage (x-fold), LRR-MCA",REGγ(K188D),15 x-fold
same,"Stimulation of cleavage (x-fold), LY-MCA",REGγ(K188D),3 x-fold
same,"Stimulation of cleavage (x-fold), VLK-MCA",REGγ(K188D),6 x-fold
same,"Stimulation of cleavage (x-fold), YVAD(SEQ ID NO: 9)-MCA",REGγ(K188D),8 x-fold
same,hydrolysis of the 21-residue peptide P21 by the proteasome (HPLC),REGγ(K188D),REGγ(K188E or D) and REGα markedly increased sunstrate consumption
same,"Stimulation of cleavage (x-fold), LLE-βNA",REGγ(K188Q),5 x-fold
same,"Stimulation of cleavage (x-fold), LLVY-MCA",REGγ(K188Q),5 x-fold
same,"Stimulation of cleavage (x-fold), LRR-MCA",REGγ(K188Q),14 x-fold
same,"Stimulation of cleavage (x-fold), LLE-βNA",REGγ(K188P),1 x-fold
same,"Stimulation of cleavage (x-fold), LLVY-MCA",REGγ(K188P),1 x-fold
same,"Stimulation of cleavage (x-fold), LRR-MCA",REGγ(K188P),12 x-fold
same,"Stimulation of cleavage (x-fold), LLE-βNA",REGγ(K188A),6 x-fold
same,"Stimulation of cleavage (x-fold), LLVY-MCA",REGγ(K188A),6 x-fold
same,"Stimulation of cleavage (x-fold), LRR-MCA",REGγ(K188A),13 x-fold
same,"% Degraded, substrate F1-EPQPQ (SEQ ID NO: 15), 5 hr",REGα/β,55%
same,"% Degraded, substrate F1-KSQPQ (SEQ ID NO: 16), 5 hr",REGα/β,85%
same,"% Degraded, substrate F1-QHQ, 5 hr",REGα/β,80%
same,"% Degraded, substrate F1-QPQ, 5 hr",REGα/β,85%
same,"% Degraded, substrate F1-QQQ, 5 hr",REGα/β,85%
same,"Stimulation of cleavage (x-fold), LLE-βNA",REGγ(K188N),5 x-fold
same,"Stimulation of cleavage (x-fold), LLVY-MCA",REGγ(K188N),5 x-fold
same,"Stimulation of cleavage (x-fold), LRR-MCA",REGγ(K188N),14 x-fold
same,"Stimulation of cleavage (x-fold), LLE-βNA",REGγ(K188S),3 x-fold
same,"Stimulation of cleavage (x-fold), LLVY-MCA",REGγ(K188S),3 x-fold
same,"Stimulation of cleavage (x-fold), LRR-MCA",REGγ(K188S),14 x-fold
same,"Stimulation of cleavage (x-fold), LLE-βNA",REGγ(K188H),4 x-fold
same,"Stimulation of cleavage (x-fold), LLVY-MCA",REGγ(K188H),5 x-fold
same,"Stimulation of cleavage (x-fold), LRR-MCA",REGγ(K188H),14 x-fold
same,"% Degraded, substrate F1-EPQPQ (SEQ ID NO: 15), 5 hr",REGγ (wild-type),5%
same,"% Degraded, substrate F1-KSQPQ (SEQ ID NO: 16), 5 hr",REGγ (wild-type),15%
same,"% Degraded, substrate F1-QHQ, 5 hr",REGγ (wild-type),5%
same,"% Degraded, substrate F1-QPQ, 5 hr",REGγ (wild-type),5%
same,"% Degraded, substrate F1-QQQ, 5 hr",REGγ (wild-type),15%
same,"Stimulation of cleavage (x-fold), AAF-MCA",REGγ (wild-type),1 x-fold
same,"Stimulation of cleavage (x-fold), DEVD(SEQ ID NO: 8)-MCA",REGγ (wild-type),2 x-fold
same,"Stimulation of cleavage (x-fold), FSR-MCA",REGγ (wild-type),7 x-fold
same,"Stimulation of cleavage (x-fold), IEGR(SEQ ID NO: 5)-MCA",REGγ (wild-type),1 x-fold
same,"Stimulation of cleavage (x-fold), IETD(SEQ ID NO: 6)-MCA",REGγ (wild-type),1 x-fold
same,"Stimulation of cleavage (x-fold), LGHD(SEQ ID NO: 7)-MCA",REGγ (wild-type),1 x-fold
same,"Stimulation of cleavage (x-fold), LLE-βNA",REGγ (wild-type),0.6 x-fold
same,"Stimulation of cleavage (x-fold), LLVY(SEQ ID NO: 1)-MCA",REGγ (wild-type),0.4 x-fold
same,"Stimulation of cleavage (x-fold), LLVY-MCA",REGγ (wild-type),0.4 x-fold
same,"Stimulation of cleavage (x-fold), LRR-MCA",REGγ (wild-type),12 x-fold and 11 x-fold
same,"Stimulation of cleavage (x-fold), LY-MCA",REGγ (wild-type),2 x-fold
same,"Stimulation of cleavage (x-fold), VLK-MCA",REGγ (wild-type),5 x-fold
same,"Stimulation of cleavage (x-fold), YVAD(SEQ ID NO: 9)-MCA",REGγ (wild-type),0.9 x-fold
same,hydrolysis of the 21-residue peptide P21 by the proteasome (HPLC),REGγ (wild-type),Wild-type REGγ decreased hydrolysis of P21 by the proteasome
